Data: patent publication US20180214569A1 (Regeneron, published 2018)
Positions count from the first letter of the chain named.

T1: LukD (GS) (Staphylococcus aureus, UniProt O54082 27-327)
T1 sequence: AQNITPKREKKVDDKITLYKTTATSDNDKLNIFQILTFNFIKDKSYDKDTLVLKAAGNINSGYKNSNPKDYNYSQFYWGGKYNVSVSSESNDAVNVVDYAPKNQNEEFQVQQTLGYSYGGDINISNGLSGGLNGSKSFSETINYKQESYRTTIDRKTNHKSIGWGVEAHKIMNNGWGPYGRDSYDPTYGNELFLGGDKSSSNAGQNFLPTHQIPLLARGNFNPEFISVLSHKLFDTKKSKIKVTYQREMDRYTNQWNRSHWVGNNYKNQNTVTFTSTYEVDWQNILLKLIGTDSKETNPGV

T2: HlgB (GS) (Staphylococcus aureus, UniProt P0A077 26-325)
T2 sequence: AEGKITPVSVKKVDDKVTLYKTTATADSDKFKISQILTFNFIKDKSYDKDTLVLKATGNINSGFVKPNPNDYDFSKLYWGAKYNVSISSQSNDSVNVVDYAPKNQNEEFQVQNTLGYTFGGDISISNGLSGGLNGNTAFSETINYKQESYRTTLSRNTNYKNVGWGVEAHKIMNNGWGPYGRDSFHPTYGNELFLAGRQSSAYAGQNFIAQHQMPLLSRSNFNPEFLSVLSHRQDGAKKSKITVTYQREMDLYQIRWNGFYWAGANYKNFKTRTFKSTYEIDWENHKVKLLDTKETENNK

B1: H1H15381P (antibody, V domains shown)
VH: EVQLVESGGGLVQPGGSLRLSCAASGFTFSRYDMHWVRQVTGKGLEWVSVIGTAGDTYYPDSVKGRFTISRENAKNSLSLQMNSLRAGDTAVYYCTRSYNWNFPFGYWGQGTLVTVSS
VL: DIQMTQSPSTLSASVGDRVTITCRASQSISSWLAWYQQKPGKAPRLLIYEASSLETGVPSRFSGSGSGTEFTLTISSLQPDDFATYYCQQYNRYPWTFGQGTKVEIK
B2: H1H15405P (antibody, V domains shown)
VH: EVQLVESGGGLVQPGGSLRLSCGASGFTFSYYWMTWVRQAPGKGLEWVANINQDGSEKFYVDSVRGRFTISRDNAKKSLYLQMNSLRAEDTAVYYCARDGYCSSIGCYNLYGMDVWGQGTTVTVSS
VL: DIQMTQSPSSLSASVGDRVTITCRASQNINKYLNWYQQKPGQAPKLLIYTTSSLQSGVPSRFSGSGSGTDFTLTISSLQPEDFATYSCQQSYNSPLTFGGGTKVEIK
B3: H1H15404P (antibody, V domains shown)
VH: QVQLQESGPGLVKPSETLSLTCTVSGGSISGYFWGWIRQTPGKGLEWIGYIFYSGSTHYNPSFKSRVTMSVDTSKNQFALKLRSVTAADTAKYYCSRQREYYGSGNYRYFGMDVWGQGTTVTVSS
VL: AIQMTQSPSSLSASVGERVTITCRASQDIRDDLGWYQQRPGKAPNLLIYAASSLHSGVPSRFSGSGSGTDFTLTISSLQPEDFATYYCLQDYNYPWTFGQGTKVEIK
B4: H1H15410P (antibody, V domains shown)
VH: QVQLQESGPGLVKPSETLSLTCTVSGGSISGYFWGWVRQPPGKGLEWIGYIFYSGSTNYNPSLKSRITLSVDTSKNQFSLKLSSVTAADTAIYYCARHREYYGSGNYRYYALDVWGQGTTVTVSS
VL: B3 VL with E17D, D28G, R39K, N45K, H55Q, Y94F, W96L
B5: H1H15408P (antibody, V domains shown)
VH: EVQLVESGGGLVQPGGSLRLSCAASGFTFSRYDMSWVRQAPGKGLEWVSAISYSGDSTYYADSVQGRFTISRDNSKNTLYLQMNSLRAEDTALYHCAKDNGYSGTYYYYYGMDVWGQGTTVTVSS
VL: DIQMTQSPSSLSASVGDRVTITCRASQGISNYLAWFQQKPGKAPKFLIYAASSLQSGVPSKFSGSGSGTDFTLTISSLQPEDFATYYCQQYNSYPYTFGQGTKLEIK
B6: H1H15376P (antibody, V domains shown)
VH: QVQLQQSGPGLVKPSQTLSLTCAISGDSVASNNAAWNWIRQSPSRGLEWLGRTYYRSKWFNDYVESVKSRISFNPDTSKNQFSLQLNSVTPEDTAVYYCARSYYDFWSGYSENNYYFYGMDVWGQGTTVTVSS
VL: DIQMTQSPSSLSASVGDRVSITCRTSQGIRNDLGWYQQKPGKAPKRLIYAASSLQSGVPSRFSGSGSGTEFTLTISSLQPEDFATYYCLQHNIYPPTFGQGTKVEIK
B7: H1H15420P2 (antibody, V domains shown)
VH: QVQLQESGLGLVKPSETLSLTCTVSGDSIGTYYWSWIRQPPGKGLEWIAYIYDSRHSNSNPSLKSRVTTSVDMSKNQFSLQLKSVTAADTAVYFCARDWGTWKPEGAFDIWGQGTMVTVSS
VL: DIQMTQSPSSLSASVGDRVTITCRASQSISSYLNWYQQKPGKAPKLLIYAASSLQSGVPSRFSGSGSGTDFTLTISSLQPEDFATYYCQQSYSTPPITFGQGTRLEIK
B8: H1H15418P2 (antibody, V domains shown)
VH: QVQLVESGGGLVRPGGSLRLSCEASGFTFNEHYMSWIRQAPGKGLEWVAFISSGGSIIYYADSVKGRFTISRDSAKNSLYLQMNSLRPEDTAIYYCAREPFGGIIVFDYWGQGTLVTVSS
VL: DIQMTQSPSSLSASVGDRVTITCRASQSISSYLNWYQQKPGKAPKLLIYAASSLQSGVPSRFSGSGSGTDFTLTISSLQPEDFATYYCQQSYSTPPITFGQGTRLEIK
B9: H1H15414P (antibody, V domains shown)
VH: EVQLVESGGDLVQPGGSLRLSCAASGFTFSSFEMNWVRQAPGKGLEWVSYISSSGSTIYYADSVKDRFTVSRDKDKNSLYLQMNSLRAEDTAVYYCARGSWNQPYFDYWGQGTLVTVSS
VL: DIQMTQSPSTLSASVGDRVTITCRASQSISSWLAWYQLKPGKAPKVLIYKASSLESGVPSRFSGSGSGTEFTLTINSLQPDDFATYYCQQYNSWTFGQGTKVEIK

Legend:
S. aureus delta toxin = S. aureus delta toxin (Staphylococcus aureus, UniProt P0C1V1 1-26); assay: ELISA, plate coated with toxin component
Description: (§1) MaxiSorp microtiter plates were coated overnight with 10 μg/mL of individual F-components of S. aureus bicomponent toxins per well. Recombinant toxin components were either obtained from IBT BioServices (Gaithersburg, Md.) or generated by GenScript (Piscataway Township, N.J.). […] Wells were washed 3 times and then incubated with 100 ng/mL anti-human HRP secondary antibody per well for one hour at 25° C. 100 μL of SuperSignal ELISA Pico Chemiluminescent Substrate, (ThermoFisher Scientific) was added to the wells and signal was detected (Victor X3 plate reader, Perkin Elmer). Luminescence values were analyzed by a three-parameter logistic equation over an 11-point response curve (GraphPad Prism). Isotype-matched irrelevant control antibody and S. aureus delta toxin were included as controls.

LukF (GS) = molecular target: T3, LukF (GS) (Staphylococcus aureus); assay: ELISA, plate coated with toxin component, chemiluminescence
T3 construct: also called LukF-PV; F-component LukF from GenScript
Description: as §1

LukF (IBT) = molecular target: T4, LukF (IBT) (Staphylococcus aureus); assay: as above
T4 construct: also called LukF-PV; F-component LukF from IBT BioServices
Description: as §1

LukD (GS) [1] = molecular target: T1, LukD (GS); assay: as above
Description: as §1

HlgB (GS) [2] = molecular target: T2, HlgB (GS); assay: as above
Description: as §1

LukD (GS) [3] = molecular target: T1, LukD (GS); assay: ELISA, plate coated with toxin component
Description: as §1

HlgB (GS) [4] = molecular target: T2, HlgB (GS); assay: ELISA, plate coated with toxin component
Description: as §1

Row | Binder | binding result (S. aureus delta toxin) | EC50 (LukF (GS)) | EC50 (LukF (IBT)) | EC50 (LukD (GS) [1]) | EC50 (HlgB (GS) [2]) | binding result (LukD (GS) [3]) | binding result (HlgB (GS) [4])
1 | B1 | no binding (tested: titration 50 uM-100 pM) | 66.7 nM | 165 nM | 59.6 nM | 102 nM | – | –
2 | B2 | no binding (tested: titration 50 uM-100 pM) | – | – | – | – | no binding (tested: titration 50 uM-100 pM) | no binding (tested: titration 50 uM-100 pM)
3 | B3 | no binding (tested: titration 50 uM-100 pM) | – | – | – | – | no binding (tested: titration 50 uM-100 pM) | no binding (tested: titration 50 uM-100 pM)
4 | B4 | no binding (tested: titration 50 uM-100 pM) | – | – | – | – | no binding (tested: titration 50 uM-100 pM) | no binding (tested: titration 50 uM-100 pM)
5 | B5 | no binding (tested: titration 50 uM-100 pM) | – | – | – | – | no binding (tested: titration 50 uM-100 pM) | no binding (tested: titration 50 uM-100 pM)
6 | B6 | no binding (tested: titration 50 uM-100 pM) | – | – | – | – | no binding (tested: titration 50 uM-100 pM) | no binding (tested: titration 50 uM-100 pM)
7 | B7 | no binding (tested: titration 50 uM-100 pM) | – | – | – | – | no binding (tested: titration 50 uM-100 pM) | no binding (tested: titration 50 uM-100 pM)
8 | B8 | no binding (tested: titration 50 uM-100 pM) | – | – | – | – | no binding (tested: titration 50 uM-100 pM) | no binding (tested: titration 50 uM-100 pM)
9 | B9 | no binding (tested: titration 50 uM-100 pM) | – | – | – | – | no binding (tested: titration 50 uM-100 pM) | no binding (tested: titration 50 uM-100 pM)
